Key:
Test in all cases: GST pull-down; 500 mM NaCl; denaturing pull-down (His-DDX21 purified in urea or guanidine)
[1] = target: T1, GST-tagged EIF1AX IDR1 fragment (Homo sapiens (Human), UniProt P47813)
T1 chain: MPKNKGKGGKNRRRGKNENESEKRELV

[2] = target: T2, GST-tagged EIF1AX IDR2 fragment (Homo sapiens (Human), UniProt P47813)
T2 chain: DIGDDDEDIDDI

[3] = target: T3, GST-tagged EIF1AX RBP fragment (Homo sapiens (Human), UniProt P47813)
T3 chain: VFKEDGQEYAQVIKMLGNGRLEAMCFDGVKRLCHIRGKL

binding result [1]: no binding
binding result [2]: no binding
binding result [3]: binds
B1: His-DDX21 (protein)
chain: MPGKLRSDAGLESDTAMKKGETLRKQTEEKEKKEKPKSDKTEEIAEEEETVFPKAKQVKKKAEPSEVDMNSPKSKKAKKKEEPSQNDISPKTKSLRKKKEPIEKKVVSSKTKKVTKNEEPSEEEIDAPKPKKMKKEKEMNGETREKSPKLKNGFPHPEPDCNPSEAASEESNSEIEQEIPVEQKEGAFSNFPISEETIKLLKGRGVTFLFPIQAKTFHHVYSGKDLIAQARTGTGKTFSFAIPLIEKLHGELQDRKRGRAPQVLVLAPTRELANQVSKDFSDITKKLSVACFYGGTPYGGQFERMRNGIDILVGTPGRIKDHIQNGKLDLTKLKHVVLDEVDQMLDMGFADQVEEILSVAYKKDSEDNPQTLLFSATCPHWVFNVAKKYMKSTYEQVDLIGKKTQKTAITVEHLAIKCHWTQRAAVIGDVIRVYSGHQGRTIIFCETKKEAQELSQNSAIKQDAQSLHGDIPQKQREITLKGFRNGSFGVLVATNVAARGLDIPEVDLVIQSSPPKDVESYIHRSGRTGRAGRTGVCICFYQHKEEYQLVQVEQKAGIKFKRIGVPSATEIIKASSKDAIRLLDSVPPTAISHFKQSAEKLIEEKGAVEALAAALAHISGATSVDQRSLINSNVGFVTMILQCSIEMPNISYAWKELKEQLGEEIDSKVKGMVFLKGKLGVCFDVPTASVTEIQEKWHDSRRWQLSVATEQPELEGPREGYGGFRGQREGSRGFRGQRDGNRRFRGQREGSRGPRGQRSGGGNKSNRSQNKGQKRSFSKAFGQ

Source: publication PMC12948210 (2025)
